Where “and” joins values, the source holds several entries; their conditions need not be identical. Identical values can stand only once.

In test [1] the target is CD3 (CD3-TCR complex) on Promega PD1 effector cells (Jurkat T cells) (human). Kind of test: cell-based or functional assay.
Test [2] concerns the target T1, Human CD3 epsilon&CD3 delta Heterodimer Protein (human, UniProt P07766 23-126; P04234 22-105).
T1 construct: Bought heterodimer; also called Human CD3 epsilon&CD3 delta Heterodimer蛋白; CD3抗原
Kind of test: ELISA, CD3 epsilon/delta heterodimer coated at 50 ng/mL, HRP goat anti-human Fc. For orientation: ELISA stands for enzyme-linked immunosorbent assay.

Test [3] deals with T2, MUC17 on LS174T cells (human, UniProt Q685J3 26-4493). Kind of test: flow cytometry on LS174T cells, PE goat anti-human Fc. On the technique in general: Flow cytometry measures light scatter and fluorescence of single cells or particles in a stream.
Test [4] addresses T2, MUC17 on LS174T cells. Put plainly: cell-based or functional assay.
Test [5] deals with T3, MUC17-ECD-His蛋白 (human, UniProt Q685J3 26-4393).
T3 construct: extracellular domain; Made in HEK-293E; the signal peptide added at the N-terminus is not part of the purified protein; also called MUC17抗原
Kind of test: ELISA, MUC17-ECD-His coated at 500 ng/mL, HRP goat anti-human Fc.

T1 sequence (P07766 23-126, stated change not applied, chain 1 of 2): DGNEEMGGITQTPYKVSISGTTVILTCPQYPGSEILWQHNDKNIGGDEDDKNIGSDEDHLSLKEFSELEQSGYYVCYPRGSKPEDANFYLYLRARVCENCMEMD
T1 sequence (P04234 22-105, stated change not applied, chain 2 of 2): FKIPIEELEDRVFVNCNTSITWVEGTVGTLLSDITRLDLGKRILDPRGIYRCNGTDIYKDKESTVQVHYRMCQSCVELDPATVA

B1: anti-MUC17×CD3 BsAb CM5 (bispecific antibody, human IgG1, kappa)
heavy: not shown
light: QAVVTQEPSLTVSPGGTVTLTCRSSTGAVTTSNYANWVQQKPGQAPRGLIGGTNKRAPGVPARFSGSLLGGKAALTLSGAQPEDEAEYYCALWYSNLWVFGQGTKVEIKRTVAAPSVFIFPPSDEQLKSGTASVVCLLNNFYPREAKVQWKVDNALQSGNSQESVTEQDSKDSTYSLSSTLTLSKADYEKHKVYACEVTHQGLSSPVTKSFNRGEC
As for B1, in test [1], the “EC 50” value was 646 pM and the Top came out at 42300. Moreover, the binding result in test [2] was “binds”. Besides, the binding result in test [3] is reported as “binds”.

B2: anti-MUC17×CD3 BsAb CM7 (bispecific antibody, human IgG1, kappa)
heavy: not shown
light: QAVVTQEPSLTVSPGGTVTLTCRSSTGAVTTSNYANWVQQKPGQAPRGLIGGTNKRAPGVPARFSGSLLGGKAALTLSGAQPEDEAEYYCALWYSNLWVFGQGTKVEIKRTVAAPSVFIFPPSDEQLKSGTASVVCLLNNFYPREAKVQWKVDNALQSGNSQESVTEQDSKDSTYSLSSTLTLSKADYEKHKVYACEVTHQGLSSPVTKSFNRGEC
As to B2, in test [4], the “IC 50 (CD3+T细胞杀伤LS174T细胞, CellTiter-Glo)” value is 280 pM. In addition, in test [1], the “EC 50” value was determined as 1410 pM and the Top stood at 80500. Moreover, in test [2], the binding result is reported as “binds”.

B3: anti-MUC17×CD3 BsAb CM6 (bispecific antibody, human IgG1, kappa)
heavy: not shown
light: QAVVTQEPSLTVSPGGTVTLTCRSSTGAVTTSNYANWVQQKPGQAPRGLIGGTNKRAPGVPARFSGSLLGGKAALTLSGAQPEDEAEYYCALWYSNLWVFGQGTKVEIKRTVAAPSVFIFPPSDEQLKSGTASVVCLLNNFYPREAKVQWKVDNALQSGNSQESVTEQDSKDSTYSLSSTLTLSKADYEKHKVYACEVTHQGLSSPVTKSFNRGEC
Consider B3, for which, in test [1], the “EC 50” value came to 1110 pM and the Top was determined as 45800. For the same molecule, in test [2], the binding result is given as “binds”. In addition, the binding result in test [3] is listed as “binds”.

B4: anti-MUC17×CD3 BsAb CM8 (bispecific antibody, human IgG1, kappa)
heavy: not shown
light: QAVVTQEPSLTVSPGGTVTLTCRSSTGAVTTSNYANWVQQKPGQAPRGLIGGTNKRAPGVPARFSGSLLGGKAALTLSGAQPEDEAEYYCALWYSNLWVFGQGTKVEIKRTVAAPSVFIFPPSDEQLKSGTASVVCLLNNFYPREAKVQWKVDNALQSGNSQESVTEQDSKDSTYSLSSTLTLSKADYEKHKVYACEVTHQGLSSPVTKSFNRGEC
In the case of B4, the “EC 50” value in test [1] turned out to be 1170 pM. Further, in test [1], the Top was 76700. The binding result in test [2] and in test [3] was “binds” each time.

B5: 27A3人源化抗体(hu-27A3) (antibody, human IgG1, kappa, V domains shown)
VH: QVQLVQSGAEVKKPGASVKVSCKASGYSFTIYWMHWVRQAPGQGLEWIGMSHPSDSESRLNQKFKDRATLTVDKSTSTAYMELSSLRSEDTAVYYCSRPYYGSSAWFADWGQGTLVTVSA
VL: DIVMTQSPDSLAVSLGERATINCKSSQSLLNSSNQKNYLAWYQQKPGQSPKLLIYFASTRESGVPDRFSGSGSGTDFTLTISSLQAEDVAVYYCQQHYSFPLTFGAGTKLELRR
notes: Humanized anti-MUC17 IgG1/kappa, made in HEK-293E; also called 抗MUC17的人源化单克隆抗体
In test [5], B5 came in with an EC 50 of 89.3 pM.

B6: 人源化抗CD3抗体huSP34 (antibody, human IgG1, kappa, V domains shown)
VH: EVQLVESGGGLVQPGGSLRLSCAASGFTFNTYAMNWVRQAPGKGLEWVARIRSKYNNYATYYADSVKDRFTISRDDSKNTLYLQMNSLRAEDTAVYYCVRHGNFGNSYVSWFAYWGQGTLVTVSS
VL: QAVVTQEPSLTVSPGGTVTLTCRSSTGAVTTSNYANWVQQKPGQAPRGLIGGTNKRAPGVPARFSGSLLGGKAALTLSGAQPEDEAEYYCALWYSNLWVFGQGTKVEIKR
notes: Humanized SP34, IgG1/kappa; positive control for the CD3 arm
For the molecule B6, the “EC 50” value in test [1] was 730 pM and 624 pM. The binding result in test [2] is given as “binds”.

The record behind these values is patent publication CN116284427A (SUNSHINE GUOJIAN PHARMACEUTICAL SHANGHAI CO LTD, dated 2023).
